# Data: IntAct's records for PubMed 19966303
# Experiments:
# [1] = biological target: atc5_yeast DNF1 (UniProt P32660)
# [2] = biological target: ypk1_yeast YPK1 (UniProt P12688)
# Chain of ypk1_yeast YPK1 (P12688 whole entry): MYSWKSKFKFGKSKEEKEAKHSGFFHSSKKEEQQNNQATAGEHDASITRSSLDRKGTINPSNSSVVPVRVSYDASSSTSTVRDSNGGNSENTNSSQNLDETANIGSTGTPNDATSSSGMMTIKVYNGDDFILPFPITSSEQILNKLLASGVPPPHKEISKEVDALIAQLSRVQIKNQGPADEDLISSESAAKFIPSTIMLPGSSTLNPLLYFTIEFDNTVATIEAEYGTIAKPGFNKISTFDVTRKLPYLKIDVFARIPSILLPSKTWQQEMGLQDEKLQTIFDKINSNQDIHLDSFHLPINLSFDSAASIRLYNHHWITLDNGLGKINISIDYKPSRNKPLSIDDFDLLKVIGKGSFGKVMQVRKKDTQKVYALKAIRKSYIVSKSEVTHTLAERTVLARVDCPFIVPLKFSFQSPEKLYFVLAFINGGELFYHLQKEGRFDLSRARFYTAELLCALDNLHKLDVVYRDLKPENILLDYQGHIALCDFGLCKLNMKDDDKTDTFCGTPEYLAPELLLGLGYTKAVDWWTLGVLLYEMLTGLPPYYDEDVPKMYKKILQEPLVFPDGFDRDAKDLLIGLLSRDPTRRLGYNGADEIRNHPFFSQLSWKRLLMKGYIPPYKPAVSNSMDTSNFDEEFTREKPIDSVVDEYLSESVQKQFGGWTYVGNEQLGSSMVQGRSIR
# Chain of atc5_yeast DNF1 (P32660 whole entry): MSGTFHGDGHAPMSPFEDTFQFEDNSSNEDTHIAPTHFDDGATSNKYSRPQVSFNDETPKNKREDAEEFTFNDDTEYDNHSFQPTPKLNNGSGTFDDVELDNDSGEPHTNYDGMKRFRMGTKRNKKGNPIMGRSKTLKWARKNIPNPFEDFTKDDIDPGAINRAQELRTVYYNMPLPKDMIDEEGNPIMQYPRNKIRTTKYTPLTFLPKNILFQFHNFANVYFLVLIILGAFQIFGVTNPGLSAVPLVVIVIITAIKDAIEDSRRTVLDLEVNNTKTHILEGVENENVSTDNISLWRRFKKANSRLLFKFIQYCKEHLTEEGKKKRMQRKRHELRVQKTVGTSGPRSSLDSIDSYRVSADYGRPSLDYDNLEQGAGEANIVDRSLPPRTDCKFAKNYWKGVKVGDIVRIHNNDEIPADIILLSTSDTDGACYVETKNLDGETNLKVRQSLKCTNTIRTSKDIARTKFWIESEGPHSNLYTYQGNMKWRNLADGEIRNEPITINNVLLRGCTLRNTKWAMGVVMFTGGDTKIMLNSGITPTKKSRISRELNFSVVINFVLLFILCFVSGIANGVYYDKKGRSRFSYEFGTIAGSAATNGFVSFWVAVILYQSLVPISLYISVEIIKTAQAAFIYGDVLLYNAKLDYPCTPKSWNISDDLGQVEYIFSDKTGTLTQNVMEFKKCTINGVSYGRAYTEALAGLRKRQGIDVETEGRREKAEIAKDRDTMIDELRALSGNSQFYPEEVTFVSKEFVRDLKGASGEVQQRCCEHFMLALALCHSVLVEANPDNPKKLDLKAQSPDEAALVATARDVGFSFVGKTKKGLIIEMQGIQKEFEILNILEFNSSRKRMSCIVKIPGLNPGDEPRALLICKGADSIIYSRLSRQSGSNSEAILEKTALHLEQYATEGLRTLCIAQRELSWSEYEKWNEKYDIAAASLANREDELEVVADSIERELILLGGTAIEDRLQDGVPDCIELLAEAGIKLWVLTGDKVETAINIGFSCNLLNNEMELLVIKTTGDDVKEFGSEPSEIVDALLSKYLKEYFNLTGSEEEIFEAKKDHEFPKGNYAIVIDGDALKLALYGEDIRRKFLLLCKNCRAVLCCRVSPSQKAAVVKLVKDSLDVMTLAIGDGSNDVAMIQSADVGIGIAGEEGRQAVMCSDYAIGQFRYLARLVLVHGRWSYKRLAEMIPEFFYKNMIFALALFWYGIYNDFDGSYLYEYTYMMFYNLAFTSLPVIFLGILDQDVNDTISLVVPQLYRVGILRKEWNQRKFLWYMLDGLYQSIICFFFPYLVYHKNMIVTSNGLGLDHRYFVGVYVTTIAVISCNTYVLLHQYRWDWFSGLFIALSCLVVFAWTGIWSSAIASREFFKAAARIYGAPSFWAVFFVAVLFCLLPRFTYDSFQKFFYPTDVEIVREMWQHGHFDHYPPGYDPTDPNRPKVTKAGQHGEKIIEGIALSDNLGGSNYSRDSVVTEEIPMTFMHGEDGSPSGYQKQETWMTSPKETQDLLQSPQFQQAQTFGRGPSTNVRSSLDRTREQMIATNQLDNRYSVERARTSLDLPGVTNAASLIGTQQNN
substance,measurement,setting,value
"Flippase kinase 1 (Saccharomyces cerevisiae), P53739 D621A",effect of a mutation on the interaction,[1],disrupting interaction
same,effect of a mutation on the interaction,[2],disrupting interaction
